Experimental findings from PMC12489474, “New structural insights into the control of the retinoic acid receptors RAR/RXR by DNA, ligands, and transcriptional coregulators” (Nucleic Acids Research, 2025) are described below.

A word on the Kd: it is the free concentration of one partner at which half of the binding sites on the other are occupied at equilibrium, for simple one-to-one binding.

The target in data set [1] is RARalpha dAB dF;RXRalpha dAB (Mus musculus / Homo sapiens (Methods …, UniProt P11416;P19793 82-421;126-462, |)). Kind of data set: SEC-SAXS; apo; Fluorescence anisotropy: 20 mM Tris-HCl pH 7.5, 75 mM NaCl, 75 mM KCl, 2 mM CHAPS, 4 mM MgCl2, 2 mM TCEP, 10% glycerol, 0.5 nM Cy5-DNA, 4 uM ligands, 294 K. To be noted: protein: recombinant;recombinant; tags: N-terminal His6 (pET15b); copies: 1;1; blunt. On the technique in general: Size exclusion chromatography separates by hydrodynamic size, large species first.

Data set [2] concerns the target RARalpha dAB dF;RXRalpha dAB;NCoR NID (Mus musculus / Homo sapiens (Methods …, UniProt P11416;P19793;Q60974 82-421;126-462;2059-2325, ||)). Briefly: SEC-SAXS; BMS493; Fluorescence anisotropy: 20 mM Tris-HCl pH 7.5, 75 mM NaCl, 75 mM KCl, 2 mM CHAPS, 4 mM MgCl2, 2 mM TCEP, 10% glycerol, 0.5 nM Cy5-DNA, 4 uM ligands, 294 K. To be noted: protein: recombinant;recombinant;recombinant; tags: N-terminal His6 (pET15b); copies: 1;1;1; blunt.

Data set [3] concerns the target T1, RAR/RXR heterodimer (RARAΔABF with RXRAΔAB) (mouse (printed as MmRARAΔABF; the same …, UniProt P11416 82-421; P19793 126-462).
T1 construct: retinoic acid receptor alpha, residues 82-421 of Uniprot entry P11416; as the chain of m1; as the chain of m2; 1:1 heterodimer by SEC-MALS; this is told in the format of each assay; also called RR–DR0; source: E. coli BL21 (DE3); RAR and RXR purified separately, mixed (2-fold excess of RAR), heterodimer purified by SEC (Superdex 200); not shown: His6, N-terminal, cleaved
T1 sequence (looked up) 1: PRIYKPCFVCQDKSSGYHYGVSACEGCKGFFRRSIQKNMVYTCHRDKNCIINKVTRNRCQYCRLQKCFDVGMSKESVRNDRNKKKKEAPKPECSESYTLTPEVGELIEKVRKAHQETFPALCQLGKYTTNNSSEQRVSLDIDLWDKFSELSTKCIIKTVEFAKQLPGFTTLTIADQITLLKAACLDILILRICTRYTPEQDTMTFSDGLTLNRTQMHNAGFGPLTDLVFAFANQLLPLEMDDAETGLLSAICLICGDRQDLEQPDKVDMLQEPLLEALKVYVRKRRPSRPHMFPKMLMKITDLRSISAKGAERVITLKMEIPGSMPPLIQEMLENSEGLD
T1 sequence (looked up) 2: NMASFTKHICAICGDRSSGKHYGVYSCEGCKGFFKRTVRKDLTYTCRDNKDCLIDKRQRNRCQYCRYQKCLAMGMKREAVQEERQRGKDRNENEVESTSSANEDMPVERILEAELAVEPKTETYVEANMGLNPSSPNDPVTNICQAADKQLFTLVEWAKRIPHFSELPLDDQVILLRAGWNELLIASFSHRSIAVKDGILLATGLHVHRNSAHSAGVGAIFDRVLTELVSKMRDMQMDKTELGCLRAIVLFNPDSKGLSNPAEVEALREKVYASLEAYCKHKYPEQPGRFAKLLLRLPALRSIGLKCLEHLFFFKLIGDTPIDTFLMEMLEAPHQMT
Briefly: MST; RR–DR1 with the agonists AM580 + CD3254; heterodimer titrated against labelled NCoRNID; same buffer, 22°C. The conditions noted are these: both partners purified.

For data set [4], the target named is T1, RAR/RXR heterodimer (RARAΔABF with …). Kind of data set: MST; RAR/RXR without DNA, with BMS493; heterodimer titrated against labelled NCoRNID; same buffer, 22°C. To be noted: both partners purified.
Data set [5] shares this target. Kind of data set: MST; RAR/RXR bound to DR0 DNA (RR–DR0), no ligand (apo); heterodimer titrated against labelled NCoRNID; same buffer, 22°C. The conditions noted are these: both partners purified.
For data set [6] the target is unchanged. Kind of data set: MST; RR–DR1 with BMS493; heterodimer titrated against labelled NCoRNID; same buffer, 22°C. To be noted: both partners purified.
For data set [7] the target is unchanged. Kind of data set: MST; RAR/RXR bound to IR0 DNA (RR–IR0), no ligand (apo); heterodimer titrated against labelled NCoRNID; same buffer, 22°C. The conditions noted are these: both partners purified.
The target is the same in data set [8]. Briefly: MST; RR–IR0 with BMS493; heterodimer titrated against labelled NCoRNID; same buffer, 22°C. To be noted: both partners purified.
The target is the same in data set [9]. Kind of data set: MST; RR–DR0 with BMS493; heterodimer titrated against labelled NCoRNID; same buffer, 22°C. To be noted: both partners purified.
The target is the same in data set [10]. Briefly: MST; RR–DR5 with BMS493; heterodimer titrated against labelled NCoRNID; same buffer, 22°C. To be noted: both partners purified.
Data set [11] shares this target. Briefly: MST; RAR/RXR bound to DR1 DNA (RR–DR1), no ligand (apo); heterodimer titrated against labelled NCoRNID; same buffer, 22°C. The conditions noted are these: both partners purified.
Data set [12] has the same target. Briefly: MST; RAR/RXR bound to DR5 DNA (RR–DR5), no ligand (apo); heterodimer titrated against labelled NCoRNID; same buffer, 22°C. To be noted: both partners purified.
Data set [13] shares this target. Briefly: MST; RAR/RXR without DNA, no ligand (apo); heterodimer in 2-fold serial dilution from 20 μM, added to an equal volume of 80 nM Atto647N-NCoRNID; 20 mM Tris–HCl pH 7.5, 75 mM NaCl, 75 mM KCl, 2 mM CHAPS, 4 mM MgCl2, 5% glycerol, 0.05% Tween-20; 22°C. The conditions noted are these: both partners purified.

B1: DR0L Hoxb13 (dsDNA)
DNA 1: CTTCCAGGAAGGTCAAGGCCAAGTTGAAAG
DNA 2: CTTTCAACTTGGCCTTGACCTTCCTGGAAG
Take B1: the binding result in data set [1] and in [2] was “binds” in each case.

B2: Atto647N-labeled NCoRNID (domain or fragment, UniProt Q60974 2059-2325, looked up)
chain: QVPRTHRLITLADHICQIITQDFARNQVPSQASTSTFQTSPSALSSTPVRTKTSSRYSPESQSQTVLHPRPGPRVSPENLVDKSRGSRPGKSPERSHIPSEPYEPISPPQGPAVHEKQDSMLLLSQRGVDPAEQRSDSRSPGSISYLPSFFTKLESTSPMVKSKKQEIFRKLNSSGGGDSDMAAAQPGTEIFNLPAVTTSGAVSSRSHSFADPASNLGLEDIIRKALMGSFDDKVEDHGVVMSHPVGIMPGSASTSVVTSSEARRDE
modifications: Atto647N label (site not stated)
In the case of B2, the Kd in data set [3] turned out to be 5.3 µM; in [4], 368 nM; in data set [5], 414 nM; in data set [6] it was 499 nM; in data set [7], 289 nM; in data set [8], 289 nM. In addition, the Kd came to 244 nM in [9]; 335 nM in data set [10]; 531 nM in [11]; 283 nM in data set [12]; 490 nM in [13].
